This note sets out measurements from US20260337278 (published 2026).

Changes are numbered by the printed parent chain.

Sequences and labels used below:
B1: SI-95X62 (antibody)
chain 1: not shown
chain 2: EIVLTQSPSTLSVSPGERATFSCRASQSIGTNIHWYQQKPGKPPRLLIKYASESISGIPDRFSGSGSGTEFTLTISSVQSEDFAVYYCQQNFNWPTTFGPGTKLTVLRTVAAPSVFIFPPSDEQLKSGTASVVCLLNNFYPREAKVQWKVDNALQSGNSQESVTEQDSKDSTYSLSSTLTLSKADYEKHKVYACEVTHQGLSSPVTKSFNRGECGGGGSGGGGGSGGGGSGGGGSQVQLQESGPSLVKPSQTLSLTCTVSGYSITSDFAWNWIRQFPGRKLEWMGYISYSGNTRYNPSLKSRFTISRDTSKNQFYLKLRSVTIADTAVYYCVTAGRGFPYWGQGTLVTVSSGGGGSGGGGSGGGGSDIVMTQSPSSVSLSLGDRVTITCHSSQDINSNIGWLQQKPGKAFKGLIYHGTNLDDGVPSRFSGSGSGADYTLTISSLQAEDFATYYCVQYAQFPWTFGPGTKLEIK
B2: SI-95X61 (antibody)
chain 1: not shown
chain 2: B1 chain 2 with F92N
B3: SI-95X67 (antibody)
chain 1: not shown
chain 2: DILMTQSPSSMSVSLGDTVSITCHSSQDINSNIGWLQQRPGKSFKGLIYHGTNLDDEVPSRFSGSGSGADYSLTISSLESEDFADYYCVQYAQFPWTFGGGTKLEIKRTVAAPSVFIFPPSDEQLKSGTASVVCLLNNFYPREAKVQWKVDNALQSGNSQESVTEQDSKDSTYSLSSTLTLSKADYEKHKVYACEVTHQGLSSPVTKSFNRGEC
B4: SI-95X66 (antibody)
chain 1: not shown
chain 2: B3 chain 2
B5: SI-95X65 (antibody)
chain 1: not shown
chain 2: B3 chain 2
B6: SI-95X53 (antibody)
chain 1: not shown
chain 2: DIVMTQSPSSVSLSLGDRVTITCHSSQDINSNIGWLQQKPGKAFKGLIYHGTNLDDGVPSRFSGSGSGADYTLTISSLQAEDFATYYCVQYAQFPWTFGPGTKLEIKRTVAAPSVFIFPPSDEQLKSGTASVVCLLNNFYPREAKVQWKVDNALQSGNSQESVTEQDSKDSTYSLSSTLTLSKADYEKHKVYACEVTHQGLSSPVTKSFNRGEC
B7: SI-95X48 (antibody)
chain 1: not shown
chain 2: EIVLTQSPSTLSVSPGERATFSCRASQSIGTNIHWYQQKPGKPPRLLIKYASESISGIPDRFSGSGSGTEFTLTISSVQSEDFAVYYCQQNNNWPTTFGPGTKLTVLRTVAAPSVFIFPPSDEQLKSGTASVVCLLNNFYPREAKVQWKVDNALQSGNSQESVTEQDSKDSTYSLSSTLTLSKADYEKHKVYACEVTHQGLSSPVTKSFNRGEC
B8: SI-95X27 (antibody)
chain 1: not shown
chain 2: DILMTQSPSSMSVSLGDTVSITCHSSQDINSNIGWLQQRPGKSFKGLIYHGTNLDDEVPSRFSGSGSGADYSLTISSLESEDFADYYCVQYAQFPWTFGGGTKLEIKGGGGSGGGGSGGGGSDVQLQESGPSLVKPSQSLSLTCTVTGYSITSDFAWNWIRQFPGNKLEWMGYISYSGNTRYNPSLKSRISITRDTSKNQFFLQLNSVTIEDTATYYCVTAGRGFPYWGQGTLVTVSAGGGGSGSGSGGGGGSGGGGSGGGGSDIQMTQSPSSLSASVGDRVTITCRSSQNIVHSNGNTYLDWYQQTPGKAPKLLIYKVSNRFSGVPSRFSGSGSGTDFTFTISSLQPEDIATYYCFQYSHVPWTFGQGTKLQITRTVAAPSVFIFPPSDEQLKSGTASVVCLLNNFYPREAKVQWKVDNALQSGNSQESVTEQDSKDSTYSLSSTLTLSKADYEKHKVYACEVTHQGLSSPVTKSFNRGEC
B9: SI-95X3 (antibody)
chain 1: not shown
chain 2: B3 chain 2
B10: SI-95X35 (antibody)
chain 1: not shown
chain 2: B3 chain 2
B11: SI-95X30 (antibody)
chain 1: not shown
chain 2: DIQMTQSPSSLSASVGDRVTITCRSSQNIVHSNGNTYLDWYQQTPGKAPKLLIYKVSNRFSGVPSRFSGSGSGTDFTFTISSLQPEDIATYYCFQYSHVPWTFGQGTKLQITRTVAAPSVFIFPPSDEQLKSGTASVVCLLNNFYPREAKVQWKVDNALQSGNSQESVTEQDSKDSTYSLSSTLTLSKADYEKHKVYACEVTHQGLSSPVTKSFNRGECGGGGSGSGSGGGGGSGGGGSGGGGSDVQLQESGPSLVKPSQSLSLTCTVTGYSITSDFAWNWIRQFPGNKLEWMGYISYSGNTRYNPSLKSRISITRDTSKNQFFLQLNSVTIEDTATYYCVTAGRGFPYWGQGTLVTVSAGGGGSGGGGSGGGGSDILMTQSPSSMSVSLGDTVSITCHSSQDINSNIGWLQQRPGKSFKGLIYHGTNLDDEVPSRFSGSGSGADYSLTISSLESEDFADYYCVQYAQFPWTFGGGTKLEIK
B12: SI-95X24 (antibody)
chain 1: not shown
chain 2: DVQLQESGPSLVKPSQSLSLTCTVTGYSITSDFAWNWIRQFPGNKLEWMGYISYSGNTRYNPSLKSRISITRDTSKNQFFLQLNSVTIEDTATYYCVTAGRGFPYWGQGTLVTVSAGGGGSGGGGSGGGGSDILMTQSPSSMSVSLGDTVSITCHSSQDINSNIGWLQQRPGKSFKGLIYHGTNLDDEVPSRFSGSGSGADYSLTISSLESEDFADYYCVQYAQFPWTFGGGTKLEIKGGGGSGSGSGGGGGSGGGGSGGGGSDIQMTQSPSSLSASVGDRVTITCRSSQNIVHSNGNTYLDWYQQTPGKAPKLLIYKVSNRFSGVPSRFSGSGSGTDFTFTISSLQPEDIATYYCFQYSHVPWTFGQGTKLQITRTVAAPSVFIFPPSDEQLKSGTASVVCLLNNFYPREAKVQWKVDNALQSGNSQESVTEQDSKDSTYSLSSTLTLSKADYEKHKVYACEVTHQGLSSPVTKSFNRGEC
B13: SI-95X31 (antibody)
chain 1: not shown
chain 2: DIQMTQSPSSLSASVGDRVTITCRSSQNIVHSNGNTYLDWYQQTPGKAPKLLIYKVSNRFSGVPSRFSGSGSGTDFTFTISSLQPEDIATYYCFQYSHVPWTFGQGTKLQITRTVAAPSVFIFPPSDEQLKSGTASVVCLLNNFYPREAKVQWKVDNALQSGNSQESVTEQDSKDSTYSLSSTLTLSKADYEKHKVYACEVTHQGLSSPVTKSFNRGECGGGGSGGGGSGSGSGGGGGSGGGGSGGGGSDVQLQESGPSLVKPSQSLSLTCTVTGYSITSDFAWNWIRQFPGNKLEWMGYISYSGNTRYNPSLKSRISITRDTSKNQFFLQLNSVTIEDTATYYCVTAGRGFPYWGQGTLVTVSAGGGGSGGGGSGGGGSDILMTQSPSSMSVSLGDTVSITCHSSQDINSNIGWLQQRPGKSFKGLIYHGTNLDDEVPSRFSGSGSGADYSLTISSLESEDFADYYCVQYAQFPWTFGGGTKLEIK
B14: SI-95X29 (antibody)
chain 1: not shown
chain 2: DIQMTQSPSSLSASVGDRVTITCRSSQNIVHSNGNTYLDWYQQTPGKAPKLLIYKVSNRFSGVPSRFSGSGSGTDFTFTISSLQPEDIATYYCFQYSHVPWTFGQGTKLQITRTVAAPSVFIFPPSDEQLKSGTASVVCLLNNFYPREAKVQWKVDNALQSGNSQESVTEQDSKDSTYSLSSTLTLSKADYEKHKVYACEVTHQGLSSPVTKSFNRGECSGSGSGGGGGSGGGGSGGGGSDVQLQESGPSLVKPSQSLSLTCTVTGYSITSDFAWNWIRQFPGNKLEWMGYISYSGNTRYNPSLKSRISITRDTSKNQFFLQLNSVTIEDTATYYCVTAGRGFPYWGQGTLVTVSAGGGGSGGGGSGGGGSDILMTQSPSSMSVSLGDTVSITCHSSQDINSNIGWLQQRPGKSFKGLIYHGTNLDDEVPSRFSGSGSGADYSLTISSLESEDFADYYCVQYAQFPWTFGGGTKLEIK
B15: SI-95X18 (antibody)
chain 1: not shown
chain 2: DIQMTQSPSSLSASVGDRVTITCRSSQNIVHSNGNTYLDWYQQTPGKAPKLLIYKVSNRFSGVPSRFSGSGSGTDFTFTISSLQPEDIATYYCFQYSHVPWTFGQGTKLQITRTVAAPSVFIFPPSDEQLKSGTASVVCLLNNFYPREAKVQWKVDNALQSGNSQESVTEQDSKDSTYSLSSTLTLSKADYEKHKVYACEVTHQGLSSPVTKSFNRGEC

One may read the Kd as the equilibrium constant for the complex coming apart. The low end stands for tighter binding, the high end for weaker binding.

For the first assay, the target named is T1, EGFRvIII (human, UniProt P00533). The experiment in a line: BLI.
B1 had a Kd of 1.02 nM. In other words, the single-digit nanomolar range.

The molecule B2 came in with an equilibrium dissociation constant (Kd) of 0.573 nM.

With B3, the Kd was 1.24 nM. Against the preceding molecule, the Kd is about 2.2-fold higher.

As to B4, the Kd stood at 0.576 nM.

As to B5, binding was characterised by a dissociation constant (Kd) of 0.804 nM.

As for B6, the dissociation constant Kd amounted to 1.28 nM. Compared with the last molecule, the Kd is about 1.6-fold higher.

B7: the dissociation constant (Kd) amounted to 0.404 nM.

Another assay addresses T1, EGFRvIII. The experiment in a line: BLI. This is another data set of the same source. For orientation: In BLI a coated tip is dipped into the sample, and binding shifts an interference pattern.
Molecule B8 gave a Kd of 0.507 nM.

B9 registered a Kd of 0.375 nM.

Regarding B10, the dissociation constant (Kd) came to 0.628 nM. Against the preceding molecule, the Kd is about 1.7-fold higher.

B11 showed a Kd of 1.24 nM.

Turning to B12, binding was characterised by a dissociation constant (Kd) of 1.45 nM.

Molecule B13 displayed a Kd of 1.08 nM.

In turn, B14 returned an equilibrium dissociation constant (Kd) of 1.12 nM. The Kd values of the last two molecules are within 1.5-fold of each other.

The molecule B15 had a dissociation constant (Kd) of 0.593 nM. This Kd lies about 1.9-fold lower than the previous one.

In another assay the target is T2, EGFR (wild-type, His-tagged or biotinylated) (human, UniProt P00533). The experiment in a line: BLI.
Regarding B1, the equilibrium dissociation constant (Kd) came to 8.16 nM.

In turn, B2 returned a Kd of 4.89 nM.

Consider B3, for which binding was characterised by a dissociation constant (Kd) of 7.06 nM. This Kd and that of the molecule before are within 1.5-fold of each other.

Regarding B4, the Kd came out at 4.65 nM.

Molecule B5 returned a dissociation constant Kd of 3.07 nM. Against the preceding molecule, the Kd is about 1.5-fold lower.

Regarding B6, the equilibrium dissociation constant (Kd) was found to be 18.2 nM. This Kd lies about 5.9-fold higher than the previous one.

In the case of B7, binding was put at a Kd of 25.5 nM.

A further assay addresses T2, EGFR (wild-type, His-tagged or …). The experiment in a line: BLI. The source holds these as a separate data set.
In the case of B8, binding was put at a Kd of 10.7 nM.

B9 yielded a dissociation constant Kd of 0.68 nM.

Molecule B10 had a Kd of 0.686 nM.

For the molecule B11, the Kd came out at 8.84 nM.

B12 came in with a dissociation constant Kd of 7.94 nM.

B13: the Kd is 10.5 nM.

Regarding B14, the Kd stood at 10.1 nM.

With B15, the equilibrium dissociation constant (Kd) was determined as 4.17 nM.
